Data as given in PMC12012969.

Columns and labels:
[1] = molecular target: KslB, bacterial Pictet–Spenglerase from Kitasatospora setae (Kitasatospora setae); assay: SEC
[2] = molecular target: KslB, bacterial Pictet–Spenglerase from Kitasatospora setae (Kitasatospora setae); assay: crystal structure

KslB, bacterial Pictet–Spenglerase from Kitasatospora setae (enzyme)
stoichiometry N [1]: 2 | stoichiometry N [2]: 2
